# In patent publication US20060194321A1, “Directed differentiation of embryonic stem cells and uses thereof” (priority 2005, published 2006):
# Entries after “also recorded” stand apart in the source; their conditions may differ.
# B1: Nodal: TGF-β-related ligand, evolutionarily conserved endoderm inducer; recombinant protein (protein, UniProt Q96S42 238-347, looked up)
# Nodal homolog: HHLPDRSQLCRKVKFQVDFNLIGWGSWIIYPKQYNAYRCEGECPNPVGEEFHPTNHAYIQSLLKRYQPHRVPSTCCAPVKTKPLSMLYVDNGRVLLDHHKDMIVEECGCL
# B2: Beta-cellulin: late factor growth factor, 50 ng/ml (protein, UniProt P35070 32-111, looked up)
# Betacellulin: DGNSTRSPETNGLLCGDPEENCAATTTQSKRKGHFSRCPKQYKHYCIKGRCRFVVAEQTPSCVCDEGYIGARCERVDLFY
# B3: BMP4: early factor, growth factor, 50 ng/ml (protein, UniProt P12644 293-408, looked up)
# Bone morphogenetic protein 4: SPKHHSQRARKKNKNCRRHSLYVDFSDVGWNDWIVAPPGYQAFYCHGDCPFPLADHLNSTNHAIVQTLVNSVNSSIPKACCVPTELSAISMLYLDEYDKVVLKNYQEMVVEGCGCR
# B4: Activin A: early factor, TGF-β related growth factor, 50 ng/ml (protein, UniProt P08476 311-426, looked up)
# Inhibin beta A chain: GLECDGKVNICCKKQFFVSFKDIGWNDWIIAPSGYHANYCEGECPSHIAGTSGSSLSFHSTVINHYRMRGHSPFANLKSCCVPTKLRPMSMLYYDDGQNIIKKDIQNMIVEECGCS
# modifications: Inhibin beta A chain
# notes: early factor, TGF-β related growth factor, 50 ng/ml
# System: Human embryonic stem cell 3 (hES3)
# Test: pdx-1 expression by quantitative RT-PCR in embryoid bodies in 3D […] (initiation protocol)
# Type: cell-based
# Conditions: factor included in or omitted from the early/late factor cocktail, day 20
# Protocol: Human embryonic stem cell 3 (hES3) were subjected to a multi-step differentiation protocol, as outlined in FIG. 2. The embryonic stem cells were cultured as embryoid bodies suspended in 3D in […]™. The cells were cultured for 10 days in medium containing the early factors and then for 10 days in medium containing the late factors. Following culture, cells were assayed for expression of pdx-1.
# To establish a baseline for comparison, human embryonic stem cells were differentiated, as described above, in 3-dimensional culture in […]™ for 20 days. […] RNA was isolated and analyzed for pdx-1 and actin expression by RT-PCR. Data were standardized in comparison to actin expression, and the results are expressed as absolute g pdx-1/kg Actin expression+/−SD.
# We evaluated individual early and late factors. […] This revised protocol differs from the initial 20-day protocol only in the nature of the early and late factors used. This 2 EF-3 LF protocol included the early factors Activin A (50 ng/ml) and BMP-4 (50 ng/ml). The cells were cultured in the early factors as previously described from day 0 to day 10. The 2 EF-3 LF protocol included the late factors HGF (50 ng/ml), exendin-4 (10 ng/ml), and β-cellulin (50 ng/ml).
# RNA isolation, cDNA synthesis, and quantitative PCR: Total RNA from hESC or EBs at various stages of differentiation was isolated using the Qiagen RNeasy kit or prepared using Trizol reagent (Invitrogen) according to the manufacturer's instructions. RNA was and quantified by UV absorption. 1 to 5 μg of RNA was DNase I treated and converted to cDNA using M-MuLV reverse transcriptase (New England Biolabs) using oligo-dT or random hexamer primers according to the manufacturer's instructions. Quantitative PCR was performed according to the manufacturer's instructions using a BioRad iCycler with approximately 50 ng cDNA per reaction containing 250 nM of each primer and 1×SYBR green master mix (Bio-Rad) and analyzed by Bio-RAD thermocycler.
# Standard curves were generated by plotting the log (concentration in fg) of series of 100-fold dilutions of the target PCR amplicon (a range of 10^4 fg to 1 fg per reaction) versus the corresponding threshold Ct value. Normalized expression was determined by the following equation: Normalized expression=(input of target gene/input of actin control), where input is calculated as the inverse log of ((the threshold cycle (Ct value)—Y-intercept of standard curve)/slope of standard curve).
molecule,measurement,setting,value
B1,contribution of the factor to induction of pdx-1 expression,,little effect; also recorded: does not significantly improve
same,contribution of the factor to induction of pdx-1 expression,listed as nodal,optional
B2,contribution of the factor to induction of pdx-1 expression,,important component
same,contribution of the factor to induction of pdx-1 expression,listed as betacellulin,optional
B3,contribution of the factor to induction of pdx-1 expression,,important components
B4,contribution of the factor to induction of pdx-1 expression,,important components
